In experiment [1] the target is T1, MAGE-A1 278-286 with alanine at position 7 peptide on HLA-A*02:01 (human).
T1 peptide: KVLEYVAKV
Nature of the experiment: cytokine release.

Experiment [2] has as its target T2, MAGE-A1 278-286 with alanine at position 8 peptide on HLA-A*02:01 (human).
T2 peptide: KVLEYVIAV
Nature of the experiment: cytokine release.

Experiment [3] addresses T3, MAGE-A1 278-286 with alanine at position 9 peptide on HLA-A*02:01 (human).
T3 peptide: KVLEYVIKA
In words: cytokine release.

Experiment [4] deals with T4, MUC1 peptide on HLA-A*02:01 (human).
T4 peptide: LLLTVLTVV
Nature of the experiment: cytokine release.

Experiment [5] has as its target T5, MAGE-A1 278-286 with alanine at position 1 peptide on HLA-A*02:01 (human).
T5 peptide: AVLEYVIKV
In words: cytokine release.

Experiment [6] has as its target T6, MAGE-A1 278-286 with alanine at position 2 peptide on HLA-A*02:01 (human).
T6 peptide: KALEYVIKV
In words: cytokine release.

Experiment [7] has as its target T7, MAGE-A1 278-286 with alanine at position 3 peptide on HLA-A*02:01 (human).
T7 peptide: KVAEYVIKV
Nature of the experiment: cytokine release.

Experiment [8] has as its target T8, MAGE-A1 278-286 with alanine at position 4 peptide on HLA-A*02:01 (human).
T8 peptide: KVLAYVIKV
In words: cytokine release.

The target in experiment [9] is T9, MAGE-A1 278-286 with alanine at position 5 peptide on HLA-A*02:01 (human).
T9 peptide: KVLEAVIKV
Nature of the experiment: cytokine release.

Experiment [10] addresses T10, MAGE-A1 278-286 with alanine at position 6 peptide on HLA-A*02:01 (human).
T10 peptide: KVLEYAIKV
Nature of the experiment: cytokine release.

Experiment [11] concerns the target T11, MAGE-A1 peptide on HLA-A*02:01 (human).
T11 chain: KVLEYVIKV
Nature of the experiment: intracellular IFNγ and IL2, 6 h; transduced human PBMCs; peptide-loaded T2 cells and 721.211-A2 cells that express the antigen; full-length, on cells. As to conditions: chains Valpha:Vbeta.

The target is the same in experiment [12]. Nature of the experiment: intracellular IFNγ; transduced human PBMCs (donor I); peptide titration on T2 cells; unit not printed for m2 (the others in pM); minimal activity not reached; full-length, on cells. The conditions noted are these: chains Valpha:Vbeta.

B1: hT27 TCR m2 (beta chain S109N) (TCR, V domains shown)
Valpha: GEDVEQSLFLSVREGDSSVINCTYTDSSSTYLYWYKQEPGAGLQLLTYIFSNMDMKQDQRLTVLLNKKDKHLSLRIADTQTGDSAIYFCAGSGGGTDKLIFGTGTRLQVFP
Vbeta: GAVVSQHPSWVICKSGTSVKIECRSLDFQATTMFWYRQFPKQSLMLMATSNEGSKATYEQGVEKDKFLINHASLTLSTLTVTSAHPEDSSFYICNAREPGQGPYEQYFGPGTRLTVT
As to B1, the binding result in experiment [1], in experiment [2], in experiment [3], in experiment [4], in [5] and in experiment [6] was “recognises” throughout. For the same molecule, the binding result in experiment [7], in experiment [8], in experiment [9] and in experiment [10] was “recognises” in each case. Besides, in experiment [11], the percent IFNγ+ cells towards 721.211-A2 cells was 49.7%. This molecule also registered an EC50 of peptide in [12] of 0.289.

The values are drawn from patent US20230242611A1 (YEDA RESEARCH AND DEVELOPMENT, published 2023).
